Source: the supplement of paper PMC10567573

B1: KRT18 (parent)
chain: RAQYDELARKNREELDKYWSQQIE
B2: INTS3 (parent)
chain: FSDDEEDLNSKGKKREFRFHPIKE

Variants of: B1
Test: protein stability index of a GFP-peptide fusion (GPS, HEK-293T) (PSI 1-6); higher = more stable
Conditions: c terminus: a fixed tail appended
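Note: lentivirally expressed fusions sorted by FACS into six bins by GFP to DsRed ratio, PSI derived from sequencing read proportions per bin multiplied by bin number.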

Variant	protein stability index
RAQYDELARKNREELDKYWSQQLE	2.21
RAQYDELARKNREELDKYWSQQHE	2.23
RAQYDELARKNREELDKYWSQQME	2.28
RAQYDELARKNREELDKYWSQQPE	4.96
RAQYDELARKNREELDKYWSQQWE	3.97
RAQYDELARKNREELDKYWSQQKE	5.03
RAQYDELARKNREELDKYWSQQDE	5.28
RAQYDELARKNREELDKYWSQQQE	4.43
RAQYDELARKNREELDKYWSQQGE	4.41
RAQYDELARKNREELDKYWSQQCE	3.45
RAQYDELARKNREELDKYWSQQAE	3.97
RAQYDELARKNREELDKYWSQQSE	4.96
RAQYDELARKNREELDKYWSQQRE	4.68
RAQYDELARKNREELDKYWSQQFE	2.23
RAQYDELARKNREELDKYWSQQEE	5.1
RAQYDELARKNREELDKYWSQQVE	4.14
RAQYDELARKNREELDKYWSQQNE	4.39
RAQYDELARKNREELDKYWSQQTE	4.69
RAQYDELARKNREELDKFWSQQIE	3.5
RAQYDELARKNREELDKHWSQQIE	4.06
RAQYDELARKNREELDKTWSQQIE	4.57
RAQYDELARKNREELDKVWSQQIE	4.33
RAQYDELARKNREELDKPWSQQIE	4.34
RAQYDELARKNREELDKGWSQQIE	4.27

Variant	protein stability index
RAQYDELARKNREELDKMWSQQIE	4.36
RAQYDELARKNREELDKAWSQQIE	4.62
RAQYDELARKNREELDKQWSQQIE	4.77
RAQYDELARKNREELDKDWSQQIE	5.12
RAQYDELARKNREELDKLWSQQIE	4.6
RAQYDELARKNREELDKIWSQQIE	3.97
RAQYDELARKNREELDKCWSQQIE	3.95
RAQYDELARKNREELDKNWSQQIE	4.92
RAQYDELARKNREELDKSWSQQIE	4.51
RAQYDELARKNREELDKKWSQQIE	4.24
RAQYDELARKNREELDKRWSQQIE	4.09
RAQYDELARKNREELDKEWSQQIE	5.17
RAQYDELARKNREELDKWWSQQIE	3.62
RAQYDELARKNREELDKYWSQQIL	2.23
RAQYDELARKNREELDKYWSQQIM	2.31
RAQYDELARKNREELDKYWSQQIR	2.3
RAQYDELARKNREELDKYWSQQIY	2.73
RAQYDELARKNREELDKYWSQQIC	3.05
RAQYDELARKNREELDKYWSQQIA	2.48
RAQYDELARKNREELDKYWSQQIN	3.13
RAQYDELARKNREELDKYWSQQII	3.12
RAQYDELARKNREELDKYWSQQIK	3.34
RAQYDELARKNREELDKYWSQQIV	3.01
RAQYDELARKNREELDKYWSQQIF	3.16

Variant	protein stability index
RAQYDELARKNREELDKYWSQQIG	3.77
RAQYDELARKNREELDKYWSQQIQ	2.94
RAQYDELARKNREELDKYWSQQIP	3.87
RAQYDELARKNREELDKYWSQQIS	3.27
RAQYDELARKNREELDKYWSQQIW	2.5
RAQYDELARKNREELDKYWSQQIH	3.72
RAQYDELARKNREELDKYWSQQIT	3.36
RAQYDELARKNREELDKYWSQQID	3.8
RAQYDELARKNREELDKYWLQQIE	2.33
RAQYDELARKNREELDKYWVQQIE	3.18
RAQYDELARKNREELDKYWHQQIE	1.59
RAQYDELARKNREELDKYWTQQIE	2.79
RAQYDELARKNREELDKYWNQQIE	2.79
RAQYDELARKNREELDKYWFQQIE	3.04
RAQYDELARKNREELDKYWRQQIE	2.17
RAQYDELARKNREELDKYWQQQIE	2.17
RAQYDELARKNREELDKYWIQQIE	2.31
RAQYDELARKNREELDKYWKQQIE	1.22
RAQYDELARKNREELDKYWPQQIE	3.85
RAQYDELARKNREELDKYWGQQIE	3.97
RAQYDELARKNREELDKYWDQQIE	4.29
RAQYDELARKNREELDKYWCQQIE	2.63
RAQYDELARKNREELDKYWYQQIE	2.79
RAQYDELARKNREELDKYWMQQIE	2.56

Variant	protein stability index
RAQYDELARKNREELDKYWWQQIE	2.6
RAQYDELARKNREELDKYWEQQIE	4.23
RAQYDELARKNREELDKYWAQQIE	3.15
RAQYDELARKNREELDKYYSQQIE	4.58
RAQYDELARKNREELDKYPSQQIE	5.03
RAQYDELARKNREELDKYNSQQIE	4.54
RAQYDELARKNREELDKYGSQQIE	5.07
RAQYDELARKNREELDKYSSQQIE	4.25
RAQYDELARKNREELDKYCSQQIE	4.91
RAQYDELARKNREELDKYASQQIE	4.73
RAQYDELARKNREELDKYQSQQIE	5.13
RAQYDELARKNREELDKYISQQIE	4.5
RAQYDELARKNREELDKYMSQQIE	5.01
RAQYDELARKNREELDKYVSQQIE	4.68
RAQYDELARKNREELDKYESQQIE	5.28
RAQYDELARKNREELDKYTSQQIE	4.97
RAQYDELARKNREELDKYHSQQIE	4.85
RAQYDELARKNREELDKYLSQQIE	4.42
RAQYDELARKNREELDKYFSQQIE	4.19
RAQYDELARKNREELDKYRSQQIE	4.71
RAQYDELARKNREELDKYDSQQIE	4.56
RAQYDELARKNREELDKYKSQQIE	4.41
RAQYDELARKNREELDDYWSQQIE	4.21
RAQYDELARKNREELDPYWSQQIE	4.25

Variant	protein stability index
RAQYDELARKNREELDHYWSQQIE	3.14
RAQYDELARKNREELDLYWSQQIE	3.14
RAQYDELARKNREELDIYWSQQIE	3.16
RAQYDELARKNREELDRYWSQQIE	2.56
RAQYDELARKNREELDAYWSQQIE	2.7
RAQYDELARKNREELDNYWSQQIE	3.02
RAQYDELARKNREELDCYWSQQIE	3.28
RAQYDELARKNREELDSYWSQQIE	3.67
RAQYDELARKNREELDQYWSQQIE	2.96
RAQYDELARKNREELDTYWSQQIE	3.21
RAQYDELARKNREELDMYWSQQIE	3.51
RAQYDELARKNREELDVYWSQQIE	3.64
RAQYDELARKNREELDFYWSQQIE	3.62
RAQYDELARKNREELDWYWSQQIE	3.65
RAQYDELARKNREELDEYWSQQIE	3.94
RAQYDELARKNREELDYYWSQQIE	3.42
RAQYDELARKNREELDGYWSQQIE	3.57
RAQYDELARKNREELDKYWSMQIE	2.98
RAQYDELARKNREELDKYWSWQIE	3.28
RAQYDELARKNREELDKYWSFQIE	3.62
RAQYDELARKNREELDKYWSYQIE	3.08
RAQYDELARKNREELDKYWSDQIE	2.88
RAQYDELARKNREELDKYWSRQIE	3.81
RAQYDELARKNREELDKYWSPQIE	4.25

Variant	protein stability index
RAQYDELARKNREELDKYWSVQIE	3.17
RAQYDELARKNREELDKYWSEQIE	2.88
RAQYDELARKNREELDKYWSTQIE	3.76
RAQYDELARKNREELDKYWSSQIE	3.4
RAQYDELARKNREELDKYWSAQIE	3.05
RAQYDELARKNREELDKYWSIQIE	3.05
RAQYDELARKNREELDKYWSNQIE	3.71
RAQYDELARKNREELDKYWSCQIE	4
RAQYDELARKNREELDKYWSKQIE	3.06
RAQYDELARKNREELDKYWSGQIE	3.58
RAQYDELARKNREELDKYWSLQIE	2.74
RAQYDELARKNREELDKYWSHQIE	3.41
RAQYDELARKNREELIKYWSQQIE	2.15
RAQYDELARKNREELTKYWSQQIE	2.92
RAQYDELARKNREELQKYWSQQIE	2.69
RAQYDELARKNREELYKYWSQQIE	2.72
RAQYDELARKNREELSKYWSQQIE	2.36
RAQYDELARKNREELHKYWSQQIE	3.35
RAQYDELARKNREELPKYWSQQIE	3.63
RAQYDELARKNREELRKYWSQQIE	3.08
RAQYDELARKNREELEKYWSQQIE	3.39
RAQYDELARKNREELNKYWSQQIE	1.42
RAQYDELARKNREELFKYWSQQIE	2.1
RAQYDELARKNREELAKYWSQQIE	2.56

Variant	protein stability index
RAQYDELARKNREELGKYWSQQIE	2.03
RAQYDELARKNREELLKYWSQQIE	3.12
RAQYDELARKNREELCKYWSQQIE	2.4
RAQYDELARKNREELWKYWSQQIE	2.21
RAQYDELARKNREELMKYWSQQIE	2.74
RAQYDELARKNREELDKYWSQIIE	3.37
RAQYDELARKNREELDKYWSQAIE	3.44
RAQYDELARKNREELDKYWSQMIE	2.67
RAQYDELARKNREELDKYWSQGIE	3.68
RAQYDELARKNREELDKYWSQHIE	4.67
RAQYDELARKNREELDKYWSQPIE	3.83
RAQYDELARKNREELDKYWSQCIE	2.31
RAQYDELARKNREELDKYWSQLIE	3.15
RAQYDELARKNREELDKYWSQTIE	3.99
RAQYDELARKNREELDKYWSQYIE	3.44
RAQYDELARKNREELDKYWSQVIE	3.08
RAQYDELARKNREELDKYWSQFIE	2.75
RAQYDELARKNREELDKYWSQNIE	3.31
RAQYDELARKNREELDKYWSQEIE	3.7
RAQYDELARKNREELDKYWSQWIE	4
RAQYDELARKNREELDKYWSQSIE	3.82
RAQYDELARKNREELDKYWSQRIE	3.78
RAQYDELARKNREELDKYWSQKIE	4.27
RAQYDELARKNREELDKYWSQDIE	4.67

Variants of: B2
Test: as above
Conditions: c terminus: a fixed tail appended

Variant	protein stability index
FADDEEDLNSKGKKREFRFHPIKE	3.14
MSDDEEDLNSKGKKREFRFHPIKE	2.58
QSDDEEDLNSKGKKREFRFHPIKE	3
KSDDEEDLNSKGKKREFRFHPIKE	2.33
WSDDEEDLNSKGKKREFRFHPIKE	2.84
ESDDEEDLNSKGKKREFRFHPIKE	3.36
PSDDEEDLNSKGKKREFRFHPIKE	3.19
ASDDEEDLNSKGKKREFRFHPIKE	2.89
SSDDEEDLNSKGKKREFRFHPIKE	2.32
NSDDEEDLNSKGKKREFRFHPIKE	3.24
DSDDEEDLNSKGKKREFRFHPIKE	2.84
VSDDEEDLNSKGKKREFRFHPIKE	3.29
RSDDEEDLNSKGKKREFRFHPIKE	2.71
ISDDEEDLNSKGKKREFRFHPIKE	3.2
LSDDEEDLNSKGKKREFRFHPIKE	2.69
HSDDEEDLNSKGKKREFRFHPIKE	2.72
YSDDEEDLNSKGKKREFRFHPIKE	2.94
TSDDEEDLNSKGKKREFRFHPIKE	3.05
GSDDEEDLNSKGKKREFRFHPIKE	2.99
CSDDEEDLNSKGKKREFRFHPIKE	2.73
